This is an account of results in article doi:10.1101/476960.

Like-named read-outs stand apart in the source and are kept apart here.

Data set [1] has as its target T1, Ago2 (Homo sapiens, UniProt Q9UKV8 1-859). Put plainly: filter binding.
Data set [2] addresses T1, Ago2. Put plainly: filter binding. This is another data set of the same source.
The target in data set [3] is T1, Ago2. As to the kind of experiment: filter binding. The source holds these as a separate data set.
The target in a further data set is Ago2 D669A (Homo sapiens, UniProt Q9UKV8 1-859, D669A). As to the kind of experiment: X-ray crystallography.
Ago2 D669A, sequence (Q9UKV8 whole entry D669A): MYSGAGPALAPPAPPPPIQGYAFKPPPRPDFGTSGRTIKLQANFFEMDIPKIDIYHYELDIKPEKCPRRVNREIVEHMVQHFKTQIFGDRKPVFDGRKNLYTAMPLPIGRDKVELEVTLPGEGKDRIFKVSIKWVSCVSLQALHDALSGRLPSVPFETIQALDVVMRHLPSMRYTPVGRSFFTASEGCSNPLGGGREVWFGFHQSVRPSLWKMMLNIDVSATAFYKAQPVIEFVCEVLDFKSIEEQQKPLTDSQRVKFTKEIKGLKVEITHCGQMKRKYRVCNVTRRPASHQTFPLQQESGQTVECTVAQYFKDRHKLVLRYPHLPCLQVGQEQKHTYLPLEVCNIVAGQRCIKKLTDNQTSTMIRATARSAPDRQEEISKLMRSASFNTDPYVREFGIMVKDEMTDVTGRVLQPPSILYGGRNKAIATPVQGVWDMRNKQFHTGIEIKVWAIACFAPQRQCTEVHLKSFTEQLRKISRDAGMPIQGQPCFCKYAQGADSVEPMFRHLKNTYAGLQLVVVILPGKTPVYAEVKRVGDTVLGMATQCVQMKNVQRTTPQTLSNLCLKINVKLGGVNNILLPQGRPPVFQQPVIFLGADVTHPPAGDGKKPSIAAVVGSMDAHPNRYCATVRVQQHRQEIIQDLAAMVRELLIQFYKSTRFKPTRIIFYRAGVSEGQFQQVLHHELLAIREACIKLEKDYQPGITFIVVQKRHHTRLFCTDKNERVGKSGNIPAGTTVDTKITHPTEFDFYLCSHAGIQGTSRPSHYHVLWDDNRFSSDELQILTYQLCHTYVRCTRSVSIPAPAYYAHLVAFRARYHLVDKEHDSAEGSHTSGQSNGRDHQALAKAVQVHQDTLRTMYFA

T1 sequence (Q9UKV8 whole entry): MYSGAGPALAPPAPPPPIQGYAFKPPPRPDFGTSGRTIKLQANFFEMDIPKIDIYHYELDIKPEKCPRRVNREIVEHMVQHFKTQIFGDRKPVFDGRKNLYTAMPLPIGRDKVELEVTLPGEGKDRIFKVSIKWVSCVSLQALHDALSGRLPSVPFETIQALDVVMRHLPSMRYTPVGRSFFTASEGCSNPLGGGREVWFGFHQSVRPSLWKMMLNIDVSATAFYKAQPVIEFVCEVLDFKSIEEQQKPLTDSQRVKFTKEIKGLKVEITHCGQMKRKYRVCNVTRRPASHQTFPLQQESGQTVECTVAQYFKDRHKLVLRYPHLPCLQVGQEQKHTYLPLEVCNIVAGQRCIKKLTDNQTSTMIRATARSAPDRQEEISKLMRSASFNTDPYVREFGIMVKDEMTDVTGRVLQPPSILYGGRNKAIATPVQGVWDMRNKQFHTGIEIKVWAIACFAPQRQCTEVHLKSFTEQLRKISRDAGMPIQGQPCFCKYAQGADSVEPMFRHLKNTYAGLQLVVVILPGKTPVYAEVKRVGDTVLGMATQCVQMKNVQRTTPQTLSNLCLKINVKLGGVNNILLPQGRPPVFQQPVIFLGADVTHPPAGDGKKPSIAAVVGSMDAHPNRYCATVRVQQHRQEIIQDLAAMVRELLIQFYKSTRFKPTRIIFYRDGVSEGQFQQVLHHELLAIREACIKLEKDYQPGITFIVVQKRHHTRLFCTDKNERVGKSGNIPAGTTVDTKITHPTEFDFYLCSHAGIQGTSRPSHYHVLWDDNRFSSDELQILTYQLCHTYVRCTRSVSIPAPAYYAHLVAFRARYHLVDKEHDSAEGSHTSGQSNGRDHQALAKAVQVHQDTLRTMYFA

B1: weak-sup miR-122 / 4 nt bridge (mixed)
RNA 1: UGGAGUGUGACACUAUCGAAAG
RNA 2: AUAGAAAAACACUCCUAA
modifications: 5' phosphate on guide
B1: the binding signal in the data set with Ago2 [1] was > 10 fold affinity vs seed-only N2.

B2: strong-sup miR-122 / 15 nt bridge (mixed)
RNA 1: UGGAGUGUGACAGCGGCGAAAG
RNA 2: CCGCAAAAAAAAAAAAAAAACACUCCUAA
modifications: 5' phosphate on guide
B2: the binding signal in the data set with Ago2 [2] is > 10 fold affinity vs seed-only N7.

B3: strong-sup miR-122 / 1 nt bridge (mixed)
RNA 1: UGGAGUGUGACAGCGGCGAAAG
RNA 2: CCGCAACACUCCUAA
modifications: 5' phosphate on guide
As for B3, the binding signal in the data set with Ago2 [2] was > 10 fold affinity vs seed-only N7.

B4: strong-sup miR-122 / 2 nt bridge (mixed)
RNA 1: UGGAGUGUGACAGCGGCGAAAG
RNA 2: CCGCAAACACUCCUAA
modifications: 5' phosphate on guide
On to B4, for which, in the data set with Ago2 [2], the binding signal is > 20 fold affinity vs seed-only N7.

B5: strong-sup miR-122 / 4 nt bridge (mixed)
RNA 1: UGGAGUGUGACAGCGGCGAAAG
RNA 2: CCGCAAAAACACUCCUAA
modifications: 5' phosphate on guide
Consider B5, for which the binding signal with Ago2 [2] was > 20 fold affinity vs seed-only N7.

B6: EV2 guide / g13-g14 target (mixed)
RNA 1: UGGAGUGUGACACCGGCGAAAG
RNA 2: GGCAAAACACUCCUAA
modifications: 5' phosphate on guide
With B6, the binding signal in the data set with Ago2 [3] is > 3.5 fold affinity vs seed-only N13.

B7: weak-sup miR-122 / 10 nt bridge (mixed)
RNA 1: UGGAGUGUGACACUAUCGAAAG
RNA 2: AUAGAAAAAAAAAAACACUCCUAA
modifications: 5' phosphate on guide
For the molecule B7, the binding signal in the data set with Ago2 [1] is 1.9 fold affinity vs seed-only N2.

B8: miR-122 21mer / 2-16 perfect target (mixed)
RNA 1: UGGAGUGUGACAAUGGUGUUU
RNA 2: CCAUUGUCACACUCCAAA
modifications: 5' phosphate on guide
In the case of B8, the binding result with Ago2 D669A is listed as “binds”.
